Here are results for eight molecules from publication PMC6662825, “The MTR4 helicase recruits nuclear adaptors of the human RNA exosome using distinct arch-interacting motifs” (Nature Communications, 2019).

A word on the Kd: it is the equilibrium constant for the complex coming apart. A lower Kd goes with a tighter complex.

The labels stand for the following.
B1: Trx-NVL^1–266 (domain or fragment, human, UniProt O15381 1-266, looked up)
chain: MKPRPAGFVDNKLKQRVIQYLTSNKCGKYVDIGVLASDLQRVYSIDYGRRKRNAFRIQVEKVFSIISSEKELKNLTELEDEHLAKRARQGEEDNEYTESYSDDDSSMEDYPDPQSANHMNSSLLSLYRKGNPDSVSNTPEMEQRETTSSTPRISSKTGSIPLKTPAKDSEGGWFIDKTPSVKKDSFFLDLSCEKSNPKKPITEIQDSKDSSLLESDMKRKGKLKNKGSKRKKEDLQEVDGEIEAVLQKKAKARGLEFQISNVKFED
notes: also called N-terminal region of human NVL tagged with thioredoxin; source: E. coli BL21 star (DE3), purified (Ni-NTA, SEC); not shown: 6xHis-Trx, N-terminal, kept

Holding throughout (conditions): both partners purified
Assay [1] concerns the target T1, GST-MTR4-∆N (human, UniProt P42285 75-1042).
T1 construct: Tag is cleavable with 3C protease; kept for the GST pull-downs; also called GST-tagged MTR4∆N; source: E. coli BL21 star (DE3), purified (Ni-NTA, heparin, SEC); not shown: 6xHis-GST, N-terminal, kept
T1 sequence (looked up): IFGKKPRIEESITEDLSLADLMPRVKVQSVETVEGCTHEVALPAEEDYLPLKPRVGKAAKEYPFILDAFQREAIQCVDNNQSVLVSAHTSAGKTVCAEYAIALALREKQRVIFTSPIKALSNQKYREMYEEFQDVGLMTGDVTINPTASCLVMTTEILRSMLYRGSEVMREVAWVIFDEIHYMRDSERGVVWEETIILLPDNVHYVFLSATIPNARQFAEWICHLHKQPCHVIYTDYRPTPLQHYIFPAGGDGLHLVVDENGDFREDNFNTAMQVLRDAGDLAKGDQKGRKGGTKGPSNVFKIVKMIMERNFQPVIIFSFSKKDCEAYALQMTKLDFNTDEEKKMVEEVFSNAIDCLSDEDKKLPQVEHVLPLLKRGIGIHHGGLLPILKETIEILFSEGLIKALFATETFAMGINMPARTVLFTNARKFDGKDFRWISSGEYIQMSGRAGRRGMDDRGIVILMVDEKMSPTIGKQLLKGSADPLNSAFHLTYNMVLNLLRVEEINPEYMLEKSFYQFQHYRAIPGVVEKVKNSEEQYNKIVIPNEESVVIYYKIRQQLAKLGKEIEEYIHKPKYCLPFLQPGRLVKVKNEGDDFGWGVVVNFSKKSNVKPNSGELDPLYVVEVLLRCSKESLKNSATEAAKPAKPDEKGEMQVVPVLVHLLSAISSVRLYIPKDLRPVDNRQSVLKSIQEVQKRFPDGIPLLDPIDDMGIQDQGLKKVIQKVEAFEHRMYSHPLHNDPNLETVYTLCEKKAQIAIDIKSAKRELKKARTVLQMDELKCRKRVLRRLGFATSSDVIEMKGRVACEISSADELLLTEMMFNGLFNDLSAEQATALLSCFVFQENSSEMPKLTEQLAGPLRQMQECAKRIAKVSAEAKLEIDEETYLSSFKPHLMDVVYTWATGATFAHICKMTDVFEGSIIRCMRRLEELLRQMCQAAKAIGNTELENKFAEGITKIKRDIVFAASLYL
The assay is described as follows: pull-down; GST-tagged MTR4 constructs as bait, Trx-NVL constructs as prey, glutathione sepharose; 10 μM GST-MTR4∆N with 20 μM Trx-NVL constructs; 50 mM Hepes pH 7.5, 150 mM NaCl, 5% glycerol, 0.05% NP40, 1 mM DTT, 30 min at 4 °C; SDS-PAGE, Coomassie.

Assay [2] deals with T2, MTR4-KOW (human, UniProt P42285 645-787).
T2 construct: human MTR4 KOW domain, residues 645–787; Named without GST in MST, NMR and ITC; the methods say the His-GST tag was cleaved with 3C protease 'when appropriate', so it was probably removed; Isotope-labelled for NMR; also called unlabeled MTR4 KOW; 15N-labelled MTR4-KOW; source: E. coli BL21 star (DE3), purified (Ni-NTA, heparin, SEC); minimal medium with 15N/13C for NMR
T2 sequence (looked up): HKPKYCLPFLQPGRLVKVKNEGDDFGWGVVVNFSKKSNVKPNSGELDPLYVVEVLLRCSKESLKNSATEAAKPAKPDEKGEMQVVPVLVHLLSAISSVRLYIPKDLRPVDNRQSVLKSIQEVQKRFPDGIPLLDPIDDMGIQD
In words: MST; 1 μM MBP-ZCCHC8^91–211-(GS)3-eYFP with a 1:1 dilution series of unlabeled MTR4-KOW; 50 mM Hepes/NaOH pH 7.5, 150 mM NaCl, 5% glycerol, 0.5 mM TCEP; MST power 70%, LED power 15%; triplicates.

For assay [3], the target named is T3, GST-MTR4∆N R743E (human, UniProt P42285 75-1042, R743E).
T3 construct: also called R743E mutant; source: E. coli BL21 star (DE3), purified (Ni-NTA, heparin, SEC); not shown: 6xHis-GST, N-terminal, kept
T3 sequence (looked up): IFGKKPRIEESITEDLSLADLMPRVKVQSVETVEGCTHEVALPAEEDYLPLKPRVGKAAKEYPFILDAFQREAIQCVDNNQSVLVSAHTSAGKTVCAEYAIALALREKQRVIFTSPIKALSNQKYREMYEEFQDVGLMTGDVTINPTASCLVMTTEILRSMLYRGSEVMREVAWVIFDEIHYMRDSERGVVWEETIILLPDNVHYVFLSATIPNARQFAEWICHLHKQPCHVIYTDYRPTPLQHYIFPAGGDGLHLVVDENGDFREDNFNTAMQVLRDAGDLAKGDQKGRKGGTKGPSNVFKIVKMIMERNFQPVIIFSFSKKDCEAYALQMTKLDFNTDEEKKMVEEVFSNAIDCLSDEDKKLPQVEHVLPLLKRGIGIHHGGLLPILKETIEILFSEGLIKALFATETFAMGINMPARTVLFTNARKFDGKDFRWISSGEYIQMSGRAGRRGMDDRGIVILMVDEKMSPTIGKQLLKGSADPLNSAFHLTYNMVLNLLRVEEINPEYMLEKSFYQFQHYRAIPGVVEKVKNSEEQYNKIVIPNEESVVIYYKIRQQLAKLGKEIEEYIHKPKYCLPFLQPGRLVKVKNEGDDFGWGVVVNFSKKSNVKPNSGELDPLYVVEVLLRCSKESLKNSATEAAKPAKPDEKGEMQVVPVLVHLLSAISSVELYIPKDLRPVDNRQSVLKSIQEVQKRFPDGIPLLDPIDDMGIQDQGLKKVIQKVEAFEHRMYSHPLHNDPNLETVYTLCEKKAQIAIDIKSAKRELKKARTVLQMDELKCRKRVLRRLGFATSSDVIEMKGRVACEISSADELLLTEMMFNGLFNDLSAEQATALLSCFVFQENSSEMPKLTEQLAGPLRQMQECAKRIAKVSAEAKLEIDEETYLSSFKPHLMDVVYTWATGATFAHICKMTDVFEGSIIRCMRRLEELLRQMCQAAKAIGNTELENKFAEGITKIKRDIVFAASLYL
The assay is described as follows: pull-down; GST-tagged MTR4 constructs as bait, MBP-ZCCHC8 constructs as prey, glutathione sepharose; 2 μM GST-MTR4∆N with 8 μM MBP-ZCCHC8 constructs; 50 mM Hepes pH 7.5, 150 mM NaCl, 5% glycerol, 0.05% NP40, 1 mM DTT, 30 min at 4 °C; SDS-PAGE, Coomassie.

Assay [4] deals with T1, GST-MTR4-∆N. Described as above.
Assay [5] has as its target B1. In words: pull-down; GST-tagged MTR4 constructs as bait, Trx-NVL constructs as prey, glutathione sepharose; 10 μM GST-MTR4∆N with 20 μM Trx-NVL constructs; 50 mM Hepes pH 7.5, 150 mM NaCl, 5% glycerol, 0.05% NP40, 1 mM DTT, 30 min at 4 °C; SDS-PAGE, Coomassie.

For the molecule B1, the binding result in assay [1] was “binds”.

B2: NVL^167–216 D176A (domain or fragment, human, UniProt O15381 167-216, looked up)
chain: KDSEGGWFIAKTPSVKKDSFFLDLSCEKSNPKKPITEIQDSKDSSLLESD
notes: The methods give Trx-NVL constructs for the NVL pull-downs, so the Trx tag was probably kept; also called D176A mutant; source: E. coli BL21 star (DE3), purified (Ni-NTA, SEC)
For B2, the binding result in assay [1] is reported as “binds”.

B3: Trx-NVL^167–216 F186A D189R (domain or fragment, human, UniProt O15381 167-216, looked up)
chain: KDSEGGWFIDKTPSVKKDSAFLRLSCEKSNPKKPITEIQDSKDSSLLESD
notes: also called F186A and D189R mutations in the Nop53-like stretch; source: E. coli BL21 star (DE3), purified (Ni-NTA, SEC); not shown: 6xHis-Trx, N-terminal, kept
On to B3, for which the binding result in assay [1] was “binds”.

B4: MBP-ZCCHC8^91–211-(GS)3-eYFP (domain or fragment, human, UniProt Q6NZY4 91-211, looked up)
chain: DGPILQILFMNNAISKQYHQEIEEFVSNLVKRFEEQQKNDVEKTSFNLLPQPSSIVLEEDHKVEESCAIKNNKEAFSVVGSVLYFTNFCLDKLGQPLLNENPQLSEGWEIPKYHQVFSHIV
notes: also called ZCCHC8-YFP fusion protein; source: E. coli BL21 star (DE3), purified (Ni-NTA, SEC); not shown: 6xHis-MBP, N-terminal, kept; (GS)3-eYFP, C-terminal, kept
In assay [2], B4 registered a Kd of about 300 nM.

B5: MBP-ZCCHC8^91–211 (domain or fragment, human, UniProt Q6NZY4 91-211, looked up)
chain: DGPILQILFMNNAISKQYHQEIEEFVSNLVKRFEEQQKNDVEKTSFNLLPQPSSIVLEEDHKVEESCAIKNNKEAFSVVGSVLYFTNFCLDKLGQPLLNENPQLSEGWEIPKYHQVFSHIV
notes: source: E. coli BL21 star (DE3), purified (Ni-NTA, SEC); not shown: 6xHis-MBP, N-terminal, kept
For B5, the binding result in assay [3] is given as “binds”.

B6: MBP-ZCCHC8^91–211 F178A/D181R (domain or fragment, human, UniProt Q6NZY4 91-211, looked up)
chain: DGPILQILFMNNAISKQYHQEIEEFVSNLVKRFEEQQKNDVEKTSFNLLPQPSSIVLEEDHKVEESCAIKNNKEAFSVVGSVLYFTNACLRKLGQPLLNENPQLSEGWEIPKYHQVFSHIV
notes: also called F178A/D181R mutant; source: E. coli BL21 star (DE3), purified (Ni-NTA, SEC); not shown: 6xHis-MBP, N-terminal, kept
Regarding B6, the binding result in assay [4] was “binds”.

B7: MBP-ZCCHC8^91–211 W198A/K202E (domain or fragment, human, UniProt Q6NZY4 91-211, looked up)
chain: DGPILQILFMNNAISKQYHQEIEEFVSNLVKRFEEQQKNDVEKTSFNLLPQPSSIVLEEDHKVEESCAIKNNKEAFSVVGSVLYFTNFCLDKLGQPLLNENPQLSEGAEIPEYHQVFSHIV
notes: also called W198A/K202E mutant; source: E. coli BL21 star (DE3), purified (Ni-NTA, SEC); not shown: 6xHis-MBP, N-terminal, kept
Take B7: the binding result in assay [4] is “binds”.

B8: GST-MTR4-KOW (domain or fragment, human, UniProt P42285 645-787, looked up)
chain: HKPKYCLPFLQPGRLVKVKNEGDDFGWGVVVNFSKKSNVKPNSGELDPLYVVEVLLRCSKESLKNSATEAAKPAKPDEKGEMQVVPVLVHLLSAISSVRLYIPKDLRPVDNRQSVLKSIQEVQKRFPDGIPLLDPIDDMGIQD
notes: human MTR4 KOW domain, residues 645–787; also called GST-tagged MTR4 KOW; source: E. coli BL21 star (DE3), purified (Ni-NTA, heparin, SEC); not shown: 6xHis-GST, N-terminal, kept
For the molecule B8, the binding result in assay [5] is given as “binds”.
